Biological target: T1, factor Xa (FXa, Kordia) (UniProt P00742 41-179; P00742 235-488, limits assumed)
T1 construct: The bovine factor Xa of the Rotachrom kit is a different reagent and is not used here
Assay: ratio of kon for FXa inhibition against plasma AT, with pentasaccharide
Experimental: In a second time FXa residual activity is measured by adding 190 μl of S2765 (200 μM) to 10 μl of previous mixture. Initial rate of substrate hydrolysis is then plotted as the function of incubation time with inhibitor and curves are fitted with equation 1 to determine kon (gray lines). Time expressed in minute is plotted in abscissa; substrate hydrolysis rate expressed in OD/s⁻¹ is plotted in ordinate.

T1 sequence (P00742 41-179 limits assumed, form in doubt, chain 1 of 2): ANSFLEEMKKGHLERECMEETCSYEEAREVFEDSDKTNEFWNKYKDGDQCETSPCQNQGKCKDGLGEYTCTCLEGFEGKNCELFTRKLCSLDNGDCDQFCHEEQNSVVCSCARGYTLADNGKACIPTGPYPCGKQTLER
T1 sequence (P00742 235-488 limits assumed, form in doubt, chain 2 of 2): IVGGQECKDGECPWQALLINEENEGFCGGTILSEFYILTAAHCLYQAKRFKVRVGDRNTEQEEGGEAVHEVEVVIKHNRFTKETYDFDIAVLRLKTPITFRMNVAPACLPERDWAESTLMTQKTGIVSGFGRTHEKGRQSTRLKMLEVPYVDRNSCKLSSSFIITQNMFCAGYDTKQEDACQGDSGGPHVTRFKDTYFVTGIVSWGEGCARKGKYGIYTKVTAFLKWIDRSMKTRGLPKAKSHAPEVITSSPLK

B1: AT-N135Q-Pro394 (other)
chain: HGSPVDICTAKPRDIPMNPMCIYRSPEKKATEDEGSEQKIPEATNRRVWELSKANSRFATTFYQHLADSKNDNDNIFLSPLSISTAFAMTKLGACNDTLQQLMEVFKFDTISEKTSDQIHFFFAKLNCRLYRKAQKSSKLVSANRLFGDKSLTFNETYQDISELVYGAKLQPLDFKENAEQSRAAINKWVSNKTEGRITDVIPSEAINELTVLVLVNTIYFKGLWKSKFSPENTRKELFYKADGESCSASMMYQEGKFRYRRVAEGTQVLELPFKGDDITMVLILPKPEKSLAKVEKELTPEVLQEWLDELEEMMLVVHMPRFRIEDGFSLKEQLQDMGLVDLFSPEKSKLPGIVAEGRDDLYVSDAFHKAFLEVNEEGSEAAASTAVVIAGRPSLNPNRVTFKANRPFLVFIREVPLNTIIFMGRVANPCVK
notes: Recombinant double mutant antithrombin made in HEK-293 or BHK-21 cells, secreted
fold lower kon than plasma AT: ≥ 7600 fold
